Test results taken from patent publication US20100143349A1 (Pfizer, published 2010).
Changes are numbered by the printed parent chain. Blank lines part the entries; values can stand above or below the binder they belong to.

Assays:
hRAGE-Fc [1] = molecular target: T1, hRAGE-Fc (human, UniProt Q15109 23-342, biotin label in the selections and HTRF assays); assay: HTRF competition, scFv vs labelled parental XT-M4 (competitor) on hRAGE
T1 construct: extracellular domain; also called biotin labeled hRAGE-Fc; Biotin-labeled RAGE-Fc; not shown: Fc part
Method: (§1) Increases in binding to RAGE antigen were detected with the aid of a competition assay using parental XT-M4 antibody. Both phage display and ribosome display libraries were selected for affinity improved variants by incubating with biotin labeled hRAGE-Fc, recovering binding clones using streptavidin magnetic beads and washing away non binding variants. Sequential rounds of selection were carried on decreasing antigen concentrations to drive the preferential recovery of higher affinity variants. Clones recovered after selection were subsequently screening for improved binding to hRAGE-Fc using HTRF. This is an assay that measures the decrease in fluorescence upon binding of parental europium cryptate-labeled XT-M4 to RAGE in the presence of competing test scFv antibodies. In these assays, periplasmic preparations of scFv were prepared from bacterial cultures and added in increasing concentrations to a combination of parental antibody and antigen. The ability of the scFV to compete with parental XT-M4 antibody to bind to Biotin-labeled RAGE-Fc was determined. In the presence of avidin-XL665 complex labeled XT-M4 bound to biotinylated RAGE-FC was detected by Fluorescence. Increasing amounts of scFv that competed with the XT-M4 for binding to biotinylated-RAGE-Fc was detected as a decrease in fluorescence. A sequential process of screening was used to focus in on a smaller number of clones with the greatest competition in HTRF assay

hRAGE-Fc [2] = molecular target: T1, hRAGE-Fc; assay: HTRF competition, scFv vs labelled parental XT-M4 (competitor) on biotin hRAGE-Fc
Method: as §1

hRAGE-Fc [3] = molecular target: T1, hRAGE-Fc; assay: as above; remark: listed apart in the source
Method: as §1

HU-RAGE-SA [4] = molecular target: T2, HU-RAGE-SA (human, UniProt Q15109 23-342); assay: BIAcore kd against parental M4 scFv-Fc
T2 construct: extracellular domain; Directly immobilized on a CM5 chip (~100 RU); also called hRAGE-SA; soluble human streptavidin-tagged RAGE; not shown: streptavidin tag (SA)

hRAGE-Fc [5] = molecular target: T1, hRAGE-Fc; assay: IC50 of parental M4 scFv-Fc over IC50 of clone, HTRF competition
[6] = molecular target: T3, human RAGE expressed on CHO cells (human, UniProt Q15109 23-404); assay: cell ELISA on CHO-RAGE cells, A450 corrected for control CHO cells
T3 construct: whole, on cells; also called CHO-RAGE cells; cell surface expressed human RAGE
Method: Stably transfected Chinese Hamster Ovary (CHO) cells were engineered to express murine and human RAGE full length proteins. The murine and human RAGE cDNAs were cloned into the mammalian expression vector pSMED, linearized and transfected into CHO cells using lipofectin methods (Kaufman, R. J., 1990, Methods in Enzymology 185:537-66; Kaufman, R. J., 1990, Methods in Enzymology 185:487-511; Pittman, D. D. et al., 1993, Methods in Enzymology 222: 236). Cells were further selected in 20 nM methotrexate and cell extracts were harvested from individual clones and analyzed by SDS sodium dodecyl sulfate-polyacrylamide gel electrophoresis (SDS-PAGE) and Western blotting to confirm expression. […] Absorbance 450 nm values were corrected for the same clones binding to control CHO cells not expressing RAGE. EC50 values were calculated after curve fitting using GraphPad prism and are expressed in μg/ml.

HU-RAGE-SA [7] = molecular target: T2, HU-RAGE-SA; assay: BIAcore, 10 nM scFv-Fc over directly immobilized HU-RAGE-SA, 1:1 fit
hRAGE-Fc [8] = molecular target: T1, hRAGE-Fc; assay: IC50 of parental M4 scFv over IC50 of clone, HTRF competition
Method: as §1

T3 sequence (Q15109 23-404): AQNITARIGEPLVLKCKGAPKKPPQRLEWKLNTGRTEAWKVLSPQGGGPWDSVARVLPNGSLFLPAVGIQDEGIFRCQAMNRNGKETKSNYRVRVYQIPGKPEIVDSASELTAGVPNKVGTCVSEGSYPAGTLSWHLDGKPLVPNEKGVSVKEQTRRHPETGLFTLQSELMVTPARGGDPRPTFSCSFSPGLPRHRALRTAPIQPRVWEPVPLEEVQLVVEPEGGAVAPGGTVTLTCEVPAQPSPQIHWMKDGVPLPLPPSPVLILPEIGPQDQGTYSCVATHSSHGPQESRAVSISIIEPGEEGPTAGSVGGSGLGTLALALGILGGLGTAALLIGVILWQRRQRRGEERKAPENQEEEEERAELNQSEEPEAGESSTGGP
T2 sequence (Q15109 23-342): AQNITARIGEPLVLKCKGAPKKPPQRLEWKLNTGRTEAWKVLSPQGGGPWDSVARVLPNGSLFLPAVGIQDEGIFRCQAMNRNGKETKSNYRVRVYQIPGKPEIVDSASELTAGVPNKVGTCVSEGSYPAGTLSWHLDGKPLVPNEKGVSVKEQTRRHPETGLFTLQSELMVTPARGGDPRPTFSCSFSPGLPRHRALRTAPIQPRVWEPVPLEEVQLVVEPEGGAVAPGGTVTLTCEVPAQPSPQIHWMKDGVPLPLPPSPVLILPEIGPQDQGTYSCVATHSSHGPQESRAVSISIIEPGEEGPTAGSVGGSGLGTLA
T1 sequence (Q15109 23-342): as above

- IC50 (hRAGE-Fc [1]): 33 nM
- IC50 (hRAGE-Fc [2]): 33.2 nM
- IC50 (hRAGE-Fc [3]): 33 nM
B1: parental XT-M4 scFv (VH 2.0, VL 2.11), VL-VH format (scFv)
scFv: DIQMTQSPSSLSASVGDRVTITCRASQDVGIYVNWFQQKPGKAPRRLIYRATNLADGVPSRFSGSRSGTDFTLTISSLQPEDFATYYCLEFDEHPLTFGGGTKVEIKDGGGSGGGGSGGGGSSEVQLVESGGGLVQPGGSLRLSCAASGFTFNNYWMTWVRQAPGKGLEWVASIDNSGDNTYYPDSVKDRFTISRDNAKNSLYLQMNSLRAEDTAVYYCARGGDITTGFDYWGQGTLVTVSS
notes: also called M4WT

- Fold change in kd (HU-RAGE-SA [4]): 5.9 fold
- Fold gain scFv-Fc (hRAGE) (hRAGE-Fc [5]): 12.2 fold
- EC50 [6]: 0.096 µg/mL
- koff (HU-RAGE-SA [7]): 0.00494 s⁻¹
B2: 5A3 scFv-Fc fusion (Fc fusion)
chain: B1 scFv with R18I, G68S, Q205K, A220T, F229L
notes: not shown: wild-type human IgG Fc (hinge and constant domains)

- Fold change in kd (HU-RAGE-SA [4]): 51.8 fold
- Fold gain scFv-Fc (hRAGE) (hRAGE-Fc [5]): 8.8 fold
- EC50 [6]: 0.092 µg/mL
- koff (HU-RAGE-SA [7]): 0.000566 s⁻¹
B3: 10D8 scFv-Fc fusion (Fc fusion)
chain: B1 scFv with R18K, I31F, G114N, G133E
notes: also called 10D8 (b); not shown: wild-type human IgG Fc (hinge and constant domains)

- Fold gain scFv (hRAGE) (hRAGE-Fc [8]): 48.2 fold
- IC50 (hRAGE-Fc [1]): 0.73 nM
- IC50 (hRAGE-Fc [2]): 0.731 nM
B4: 6C2 scFv (scFv)
scFv: B1 scFv with T226K, T227V, G228S, F229L, Y231R

- Fold gain scFv (hRAGE) (hRAGE-Fc [8]): 16.2 fold
- IC50 (hRAGE-Fc [1]): 2.03 nM
- IC50 (hRAGE-Fc [2]): 2.03 nM
B5: 6G4 scFv (scFv)
scFv: B1 scFv with T226L, T227D, G228S, F229L, D230H, Y231F

- Fold change in kd (HU-RAGE-SA [4]): 4.5 fold
- Fold gain scFv-Fc (hRAGE) (hRAGE-Fc [5]): 8.8 fold
- EC50 [6]: 0.541 µg/mL
- koff (HU-RAGE-SA [7]): 0.00649 s⁻¹
B6: 3B3 scFv-Fc fusion (Fc fusion)
chain: B1 scFv with I31F, F229L
notes: as for B2

- Fold change in kd (HU-RAGE-SA [4]): 0.28 fold
- Fold gain scFv-Fc (hRAGE) (hRAGE-Fc [5]): 5 fold
- EC50 [6]: 0.133 µg/mL
- koff (HU-RAGE-SA [7]): 0.105 s⁻¹
B7: 10G10 scFv-Fc fusion (Fc fusion)
chain: B1 scFv with K103R, T158S, D179E
notes: as for B2

- Fold gain scFv (hRAGE) (hRAGE-Fc [8]): 35.8 fold
- IC50 (hRAGE-Fc [1]): 0.92 nM
- IC50 (hRAGE-Fc [2]): 0.917 nM
B8: 3B2 scFv (scFv)
scFv: B1 scFv with T226L, T227V, F229L

- Fold change in kd (HU-RAGE-SA [4]): 3.9 fold
- Fold gain scFv-Fc (hRAGE) (hRAGE-Fc [5]): 5.1 fold
- EC50 [6]: 0.077 µg/mL
- koff (HU-RAGE-SA [7]): 0.00344 s⁻¹
B9: 8G9 scFv-Fc fusion (Fc fusion)
chain: B1 scFv with G139S, F229L
notes: as for B2

- Fold gain scFv (hRAGE) (hRAGE-Fc [8]): 50.7 fold
- IC50 (hRAGE-Fc [1]): 0.65 nM
- IC50 (hRAGE-Fc [2]): 0.645 nM
B10: 6B6 scFv (scFv)
scFv: B1 scFv with T226I, T227I, G228S, F229L, Y231W

- Fold change in kd (HU-RAGE-SA [4]): 20.8 fold
- Fold gain scFv-Fc (hRAGE) (hRAGE-Fc [5]): 7.6 fold
- EC50 [6]: 0.0285 µg/mL
- koff (HU-RAGE-SA [7]): 0.00141 s⁻¹
B11: 6B6 scFv-Fc fusion (Fc fusion)
chain: B1 scFv with T226I, T227I, G228S, F229L, Y231W
notes: Substitutions derived from the printed HCDR3; not shown: wild-type human IgG Fc (hinge and constant domains)

- Fold gain scFv (hRAGE) (hRAGE-Fc [8]): 70 fold
- IC50 (hRAGE-Fc [1]): 0.47 nM
- IC50 (hRAGE-Fc [2]): 0.474 nM
B12: 3A6 scFv (scFv)
scFv: B1 scFv with T226L, T227V, G228S, F229L, Y231V

- Fold change in kd (HU-RAGE-SA [4]): 61 fold
- Fold gain scFv-Fc (hRAGE) (hRAGE-Fc [5]): 8.2 fold
- EC50 [6]: 0.0816 µg/mL
- koff (HU-RAGE-SA [7]): 0.000484 s⁻¹
B13: 6B2 scFv-Fc fusion (Fc fusion)
chain: B1 scFv with T226R, T227V, F229L, Y231V
notes: as for B11

- Fold gain scFv (hRAGE) (hRAGE-Fc [8]): 37.9 fold
- IC50 (hRAGE-Fc [1]): 0.87 nM
- IC50 (hRAGE-Fc [2]): 0.87 nM
B14: 3G5 scFv (scFv)
scFv: B1 scFv with T226L, T227D, G228S, F229L, D230P

- Fold change in kd (HU-RAGE-SA [4]): 65.1 fold
- Fold gain scFv-Fc (hRAGE) (hRAGE-Fc [5]): 62.7 fold
- EC50 [6]: 0.0565 µg/mL
- koff (HU-RAGE-SA [7]): 0.00045 s⁻¹
B15: 3G5 scFv-Fc fusion (Fc fusion)
chain: B1 scFv with T226L, T227D, G228S, F229L, D230P
notes: as for B11
